{"source": "patent US20140093496A1", "about": "(Chugai, published 2014)", "binders": {"B1": {"name": "IL6R-BP176/IL6R-L (antibody, human IgG1, kappa)", "heavy": "QVQLQESGPGLVKPSETLSLTCAVSGHSISHDHAWSWVRQPPGEGLEWIGFISYSGITNYNPSLQGRVTISRDNSKNTLYLQMNSLRAEDTAVYYCARSLARTTAMDYWGEGTLVTVSSASTKGPSVFPLAPSSKSTSGGTAALGCLVKDYFPEPVTVSWNSGALTSGVHTFPAVLQSSGLYSLSSVVTVPSSSLGTQTYICNVNHKPSNTKVDKKVEPKSCDKTHTCPPCPAPDLLGGDSVFLFPPKPKDTLMISRTPEVTCVVVDVSHEDPEVKFNWYVDGVEVHNAKTKPREEQYNSTYRVVSVLTVLHQDWLNGKEYKCKVSNDALPKPIEKTISKAKGQPREPQVYTLPPSRDELTKNQVSLTCLVKGFYPSDIAVEWESNGQPENNYKTTPPVLDSDGSFFLYSKLTVDKSRWQQGNVFSCSVMHEALHNHYTQESLSLSP", "light": "not shown", "notes": "E233D/P238D/K326D/A330K (EU) in IL6R-B3; copies: 2 + 2"}, "B2": {"name": "IL6R-BP148/IL6R-L (antibody, human IgG1, kappa)", "heavy": "B1 heavy with L236Y, G239D, D328A", "light": "not shown", "notes": "E233D/L234Y/G237D/P238D/K326A/A330K (EU) in IL6R-B3; copies: 2 + 2"}, "B3": {"name": "IL6R-BP184/IL6R-L (antibody, human IgG1, kappa)", "heavy": "B1 heavy with P273G, D328K", "light": "not shown", "notes": "E233D/P238D/P271G/A330K (EU) in IL6R-B3; copies: 2 + 2"}, "B4": {"name": "IL6R-BP208/IL6R-L (antibody, human IgG1, kappa)", "heavy": "B1 heavy with G239D, H270D, P273G, D328K, K332R", "light": "not shown", "notes": "E233D/G237D/P238D/H268D/P271G/A330R (EU) in IL6R-B3; also called IL6R-BP20B/IL6R-L; copies: 2 + 2"}, "B5": {"name": "IL6R-BP129/IL6R-L (antibody, human IgG1, kappa)", "heavy": "B1 heavy with Y298D, D328K", "light": "not shown", "notes": "E233D/P238D/Y296D/A330K (EU) in IL6R-B3; copies: 2 + 2"}, "B6": {"name": "IL6R-BP089/IL6R-L (antibody, human IgG1, kappa)", "heavy": "B1 heavy with D235E, L236Y, D328A", "light": "not shown", "notes": "L234Y/P238D/K326A/A330K (EU) in IL6R-B3; copies: 2 + 2"}, "B7": {"name": "IL6R-BP183/IL6R-L (antibody, human IgG1, kappa)", "heavy": "B1 heavy with L236Y, P273G, D328A", "light": "not shown", "notes": "E233D/L234Y/P238D/P271G/K326A/A330K (EU) in IL6R-B3; copies: 2 + 2"}, "B8": {"name": "IL6R-2B253/IL6R-L (antibody, human IgG1, kappa)", "heavy": "B1 heavy with V325M, D328K, K332A", "light": "not shown", "notes": "E233D/P238D/V323M (EU) in IL6R-B3; copies: 2 + 2"}, "B9": {"name": "IL6R-BP085/IL6R-L (antibody, human IgG1, kappa)", "heavy": "B1 heavy with D235E, G239D, D328K", "light": "not shown", "notes": "G237D/P238D/A330K (EU) in IL6R-B3; copies: 2 + 2"}, "B10": {"name": "IL6R-BP190/IL6R-L (antibody, human IgG1, kappa)", "heavy": "B1 heavy with D235E, G239D, H270D, P273G, D328K", "light": "not shown", "notes": "G237D/P238D/H268D/P271G/A330K (EU) in IL6R-B3; copies: 2 + 2"}, "B11": {"name": "IL6R-PD043/IL6R-L (antibody, human IgG1, kappa)", "heavy": "B1 heavy with D235E, L236Y, M254Y, D328K, K332A, N436Y, E441K", "light": "not shown", "notes": "IL6R-F11 with P238D/L234Y; copies: 2 + 2"}, "B12": {"name": "IL6R-PD081/IL6R-L (antibody, human IgG1, kappa)", "heavy": "B1 heavy with D235E, G239E, M254Y, D328K, K332A, N436Y, E441K", "light": "not shown", "notes": "IL6R-F11 with P238D/G237E; copies: 2 + 2"}, "B13": {"name": "IL6R-PD097/IL6R-L (antibody, human IgG1, kappa)", "heavy": "B1 heavy with D235E, S241D, M254Y, D328K, K332A, N436Y, E441K", "light": "not shown", "notes": "IL6R-F11 with P238D/S239D; copies: 2 + 2"}, "B14": {"name": "IL6R-PD086/IL6R-L (antibody, human IgG1, kappa)", "heavy": "B1 heavy with D235E, G239L, M254Y, D328K, K332A, N436Y, E441K", "light": "not shown", "notes": "IL6R-F11 with P238D/G237L; copies: 2 + 2"}, "B15": {"name": "IL6R-PD082/IL6R-L (antibody, human IgG1, kappa)", "heavy": "B1 heavy with D235E, G239F, M254Y, D328K, K332A, N436Y, E441K", "light": "not shown", "notes": "IL6R-F11 with P238D/G237F; copies: 2 + 2"}, "B16": {"name": "IL6R-PD095/IL6R-L (antibody, human IgG1, kappa)", "heavy": "B1 heavy with D235E, G239Y, M254Y, D328K, K332A, N436Y, E441K", "light": "not shown", "notes": "IL6R-F11 with P238D/G237Y; copies: 2 + 2"}, "B17": {"name": "IL6R-PD094/IL6R-L (antibody, human IgG1, kappa)", "heavy": "B1 heavy with D235E, G239W, M254Y, D328K, K332A, N436Y, E441K", "light": "not shown", "notes": "IL6R-F11 with P238D/G237W; copies: 2 + 2"}}, "note": "Changes are numbered by the printed parent chain. Numbers in names are those of the source."}
{"biological_target": "T1, FcγRIIa type H extracellular domain with C-terminal His tag (human, UniProt P12318 34-217)", "T1 construct": "extracellular domain; also called FcgRIIaH; FcγRIIaH", "T1 sequence (looked up)": "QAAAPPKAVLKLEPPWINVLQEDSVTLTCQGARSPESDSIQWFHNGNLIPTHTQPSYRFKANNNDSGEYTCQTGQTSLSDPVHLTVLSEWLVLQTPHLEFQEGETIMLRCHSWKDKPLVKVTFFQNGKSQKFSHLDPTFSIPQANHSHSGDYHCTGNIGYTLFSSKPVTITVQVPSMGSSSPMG", "test": "SPR (Biacore)", "units": {"Kd": "µM"}}
{"binder": "B1", "Kd": 30}
{"binder": "B2", "Kd": 7}
{"binder": "B3", "Kd": 30}
{"binder": "B4", "Kd": 8.3}
{"binder": "B5", "Kd": 40}
{"binder": "B6", "Kd": 20}
{"biological_target": "T2, FcγRIIa type R extracellular domain with C-terminal His tag (human, UniProt P12318 34-217)", "T2 construct": "extracellular domain; also called FcgRIIaR; FcγRIIaR", "T2 sequence (looked up)": "T1 sequence (looked up) with H134R", "test": "SPR (Biacore)", "units": {"Kd": "µM"}}
{"binder": "B7", "Kd": 2.6}
{"binder": "B8", "Kd": 5}
{"binder": "B3", "Kd": 2.3}
{"binder": "B4", "Kd": 0.85}
{"binder": "B9", "Kd": 4.2}
{"biological_target": "T3, FcγRIIIa type V extracellular domain with C-terminal His tag (human, UniProt P08637 17-208)", "T3 construct": "extracellular domain; also called FcgRIIIaV; FcγRIIIaV", "test": "SPR (Biacore)", "units": {"Kd": "µM"}, "T3 sequence (P08637 17-208 F176V)": "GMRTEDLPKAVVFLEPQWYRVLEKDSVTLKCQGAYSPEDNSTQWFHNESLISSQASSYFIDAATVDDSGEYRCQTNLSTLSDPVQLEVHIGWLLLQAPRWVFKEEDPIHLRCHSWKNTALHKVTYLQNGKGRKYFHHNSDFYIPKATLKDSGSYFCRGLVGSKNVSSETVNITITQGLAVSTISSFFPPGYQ"}
{"binder": "B7", "Kd": 56}
{"binder": "B2", "Kd": 30}
{"binder": "B8", "Kd": 50}
{"binder": "B3", "Kd": 66}
{"binder": "B10", "Kd": 45}
{"binder": "B9", "Kd": 68}
{"biological_target": "T4, FcγRIIIa type V extracellular domain with C-terminal His tag (human, UniProt P08637 17-208)", "T4 construct": "extracellular domain; also called FcγRIIIaV; FcgRIIIaV; not shown: His tag at the C terminus", "test": "SPR (Biacore), antibody captured, FcγR analyte", "text": "(§1) Furthermore, KD(IIaR)/KD(IIb) and KD(IIaH)/KD(IIb) in the table respectively show the value obtained by dividing the KD value of each variant for FcγRIIaR by the KD value of each variant for FcγRIIb, and the value obtained by dividing the KD value of each variant for FcγRIIaH by the KD value of each variant for FcγRIIb. KD(IIb) of the parent polypeptide/KD(IIb) of the altered polypeptide refers to a value obtained by dividing the KD value of the parent polypeptide for FcγRIIb by the KD value of each variant for FcγRIIb.\n(§2) Kinetic analyses for calculating the KD values of each altered antibody for FcγR were performed according to the following method. First, antibodies of interest were captured onto the above-mentioned sensor chips, and an Fcγ receptor diluted with the running buffer was allowed to interact. The Biacore Evaluation Software was used to globally fit the measured results to the obtained sensorgram using the 1:1 Langmuir binding model, and the association rate constant ka (L/mol/s) and the dissociation rate constant kd (1/s) were calculated; and from those values the dissociation constants KD (mol/L) were calculated.", "units": {"Kd": "µM"}, "T4 sequence (P08637 17-208 F176V)": "as above"}
{"binder": "B11", "Kd": 45}
{"binder": "B12", "Kd": 41}
{"binder": "B13", "Kd": 17}
{"binder": "B14", "Kd": 41}
{"binder": "B15", "Kd": 43}
{"binder": "B16", "Kd": 42}
{"binder": "B17", "Kd": 38}
{"biological_target": "T5, FcγRIIa type R extracellular domain with C-terminal His tag (human, UniProt P12318 34-217)", "T5 chain": "T1 sequence (looked up) with H134R", "test": "SPR (Biacore), antibody captured, FcγR analyte", "text": "as §1, §2", "units": {"Kd": "µM"}}
{"binder": "B11", "Kd": 26}
{"binder": "B12", "Kd": 38}
{"binder": "B13", "Kd": 3.5}
{"binder": "B15", "Kd": 14}
{"binder": "B16", "Kd": 7.9}
{"binder": "B17", "Kd": 7.2}
